What was measured:
RAD52 (Homo sapiens) [1] = molecular target: T1, RAD52 (Homo sapiens) (UniProt P43351); assay: competition
T1 sequence: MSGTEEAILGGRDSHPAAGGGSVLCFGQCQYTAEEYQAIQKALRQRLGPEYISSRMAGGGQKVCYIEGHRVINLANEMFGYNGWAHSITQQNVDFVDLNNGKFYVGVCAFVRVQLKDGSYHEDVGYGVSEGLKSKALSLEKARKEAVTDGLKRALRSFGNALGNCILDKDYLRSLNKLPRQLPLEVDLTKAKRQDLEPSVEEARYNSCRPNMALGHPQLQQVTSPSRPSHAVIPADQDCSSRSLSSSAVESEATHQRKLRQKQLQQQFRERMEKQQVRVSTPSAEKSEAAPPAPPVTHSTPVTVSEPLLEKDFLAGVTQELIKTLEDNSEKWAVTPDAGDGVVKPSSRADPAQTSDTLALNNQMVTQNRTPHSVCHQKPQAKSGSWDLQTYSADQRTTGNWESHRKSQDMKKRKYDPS

[2] = molecular target: RAD52 Y104pCMF Y104pCMF (Homo sapiens) (UniProt P43351); assay: single-molecule FRET; details: amino modifier C6 dT at last dT of gap
RAD52 (Homo sapiens) [3] = molecular target: T1, RAD52 (Homo sapiens); assay: single-molecule FRET; details: amino modifier C6 dT at last dT of gap
[4] = molecular target: RAD52 Y104pCMF Y104pCMF (Homo sapiens) (UniProt P43351); assay: FRET titration; details: scale: nM protein at maximum FRET

linearized PhiX174 RFI dsDNA
binding signal (% ssDNA released at 150 nM nt dsDNA) (RAD52 (Homo sapiens) [1]): 95.1

TATGCTCTAAGCCATCCATGTATTTTTTTTTTTTTTTTTTTTTTTTTTTTCCCTAGATACCAGTAGATTCGGAAA / TTTCCGAATCTACTGGTATCTAGGG / TACATGGATGGCTTAGAGCATA [gapped DNA, 28-nt (dT) gap]
binding signal (% molecules in high FRET (wrapped) state) [2]: 43.5
binding signal (% molecules in high FRET (wrapped) state) (RAD52 (Homo sapiens) [3]): 9.47

TTTTTTTTTTTTTTTTTTTTTTTTTTTTTT [Cy5-(dT)30-Cy3]
binding signal [4]: 5
